These results are taken from the nanobody polyreactivity screen of Harvey et al. (2022).

The data set is described as follows: yeast display, Sf9 membrane polyspecificity reagent, FACS + sequencing; frameworks hold sequencing errors. The method, boiled down: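 Synthetic nanobody libraries on Saccharomyces cerevisiae BJ5465 were galactose-induced for 36–48 hours, stained 1 hour at 4 °C with 10% biotinylated, detergent-solubilized Sf9 membrane reagent and enriched on streptavidin microbeads. FACS then separated cells into low and high (top ~1%) gates by anti-HA (expression) and streptavidin (reagent binding) fluorescence. Genes were colony-PCR amplified, MiSeq 2 × 250 sequenced and CDR-length filtered. A clone's polyreactivity label is that of its gate of origin.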
“QVQHVESGGGLVQAGGSLRLSCAASGIIFHSYAMGWYRQAPGKERELVAAISKNVVSTYYADSVKGRFTISRDNAKNTVYLQMNSLKPEDTAVYYCATLKPYRARQRDYWGQGTQVTVSS”: the “polyreactivity (PSR sort gate)” value is on record as “high polyreactivity”. As for “QVQLVESGGGLVQAGGSLRLSCAASGSTFYGYAMGWYRQPPGKERELVAAITIGGRTYYADSVKGRFTISRDNAKNTVYLQMNSLKPEDTAVYYCAAAILRTVPELGSRRTYYYWGQGTQVTVSS”, the entry is “high polyreactivity”; as for “QVQLVESGGGLVQAGGSLRLSCAASGFIFYSYAMGWYRQAPGKERELVAAISSSGRTNYADSVKGRFTISRDNAKNTVYLQMNSLKPEDTAVYYCNVVRWHGYRVGRYDYWGQGSQVTVSS”, “high polyreactivity”. The same measure for “QVQLVESGGGLVQAGGSLRLSCAASGRIFGGYAMGWYRQAPGKERELVAAISRSGGSTYYADSVKGRFTISRDNAKNTVYLQMNSLKPEDTAVYYCNVASKRALSRYKGYYWGQGTQVTVSS”: “high polyreactivity”.

For “QVQLVESGGGLVQAGGSLRLSCAASGRIFVYNAMGWYRQAPGKERELVAAITRGGSTYYADSVKGRFTISRDNAKNTVYLQMNSLKPEDTAVYYCASDYQRNDFRWYDYWGQGTQVTVSS”, the “polyreactivity (PSR sort gate)” value is “low polyreactivity”. As for “QVQLLESGGGLVQAGGILRLSCAASGRTLHYSAMGWYRQAPGIERELVAAISARGGRTYYADSVKGRFTISRDNAKNTVYLLMQTLKPEDTAVYYCAAAGYITRYDRYDYWGQGTHVTVSS”, the entry is “high polyreactivity”; as for “QVQLVESGGGLVQAGGSLRLSCAASGRIFGYNAMGWYRQAPGKERELVAAINSDGSKNYADSVKGRFTISRDNAKNTVYLQMNSLKPEDTAVYYCAADGHVGPLGVSFDSWGQGSQVTVSS”, “low polyreactivity”. As for “QVQLVESGGGLVQAGGSLRLFCAASGSTFISYAMGWYRQAPGKERELVAAISSSGGSTYYAYSVKGRFTISRDNAKNNVYLQMNSLKPEDTAVYYCAAEAVYYRSWRYYYCGQGTQVTVSS”, the entry is “high polyreactivity”. As for “QVQLVESRGGLVQAGGSLRLSCAASGSIFGANAMGWYRQEPGKEMELVAAISTRGGRTYYADSVKGRFTISRDNAKNTVYLQMISLKPEDTAVYYCATSGGRPYTYEYWGQGTQVTVSS”, the entry is “high polyreactivity”; as for “QVQLVESGGGLVEAGGSLRLICAAAGSNFSYYAMGWYRQAPGKERELVAAISWNGGRTYYADSVKGRFTISRDNAKYSVYLQMNSLKPEDTAVYYCAARSSYKFYYWGQRTQVTVSS”, “high polyreactivity”; as for “QVQLVESGGGLVQAGGSLRLSCAASGRTFSRYAMGWYRQAPGKERELVAAITSGGSTYYADSVKGRFTISRDNAKNTVYLQMNSLKPEDTAVYYCAAVWRYGYSDGGYWGLGTQVTVSS”, “high polyreactivity”.

In the case of “QVQLVESGGGLVQAGGSLRLSCAASGRISRVYAMGWYRQAPGKERELVASITGRGGSTYYADSVKGRFTISRDNAKNTVYLQMNSLKPEDTAVYYCAALIDVITGQYDYWGQGTQVTVSS”, the “polyreactivity (PSR sort gate)” value is “high polyreactivity”. As for “QVQLVESGGGLVQAGGSLRLSCADSGRIFADNAMGWYRHAPGKERELVAAITWSGGITFYADSVKGRFTISRDNAKKTVYLQMNSLKPEDTAVYYCATYGHRDTPYNYWGQGTQVTVSS”, the entry is “low polyreactivity”; as for “QVQLVESGGGLVQAGGSLRLSCAASGITLYFYAMGWYRQAPGKERELVAGISGSVGSTHYADSVKGRFTISRDNAKNTVYLQMNSLKPEDTAVYYCAARYPFLRPKVNYWGQGTQVTVSS”, “high polyreactivity”. In the case of “QVQLVESGGGLVQAGGSLRLSCAASGRIYRYVMGWYRQAPGKERELVATITGRGGSTYYADSVKGRFTISRDNAKHTVYLQMNILKPEDTAVYYCAAAGRGSWTTYRFDYWGQGTQVTVSS”, the “polyreactivity (PSR sort gate)” value is on record as “high polyreactivity”. As for “QVQLVESGGGLVQAGGSLRLSCAASGNTFVPYVMGWYRQAHGKERELVAAISRRGGSTRYADSVKGRFTISRDNAKNTVYLQMNSLKPEDTAVYYCAADGYVFALQRSRGVDFGYEYWGQGTQGTVSS”, the entry is “high polyreactivity”; as for “QVQLVESGGGLVQAGGSLRLSCAASGSTQYKYAMGWNRQAPGKERELVAAISWSGSSTYYADSVKGRFTISRDNAKNTVYLQLNSLKREDTAVYYCAAYPRPYIGYTDGYVWYEFDYWGQGTQVTVSS”, “low polyreactivity”; as for “QVQLVESGGGLVQAGGSLRLSCAASGFIFRWYAMGWYRQAPGKERELVAAISSGATTNYADSVKGRFTISRDNAKNTVYLQMNSLKPEDTAVYYCAAAHSYYGHYYYWGQGTQVTVSS”, “high polyreactivity”. In the case of “QVQLVESGGGLVQAGGSLRLSCAASGYIFHLYGMGWYRQAPGKERELVARISYRGGSTYYADSVKGRFTISRDNAKNTVYLQMNSLKPEDTAVYYCAKDYYKHYYWGQGTQVTVSS”, the “polyreactivity (PSR sort gate)” value was “high polyreactivity”. The same measure for “QVQLVESGGGLVQAGGSLRLSCAASGSTFVTYAMGRYRQAPGTERELVAAISRRGGSTYYADSVKGRFTISRDNAKYTVYLQLNSLKPVDTAFYYCAAVQGSYSRDGADDYWGQGTQVTVSS”: “high polyreactivity”. “QVQLVESGGGLVQAGGSLRLSCAASGNIFPAYVMGWYRQAPGKERELVAAITDSDGSTFYADSVKGRFTISRDNAKNTVYLQMNSLKPEDTAVYYCAAYSYRQGWGFGYWGQGTQVTVSS”: the “polyreactivity (PSR sort gate)” value is recorded as “low polyreactivity”. As for “QVQLEESGGGLVQAGGSLRLSCAASGRIIQQYAMGWSRQAPGKDRELVAAISRGGSTYYADSEKGRFTISRDNAKNTVYLLMYSLKPEDTAVYDCNAGVGFTSAPQKYYYWGEGTQVTVSS”, the entry is “high polyreactivity”; as for “QVQLVESGGGLVQAGGSLRLSCAASGRTSRSNAMGWYRQAPGKERELVAAISSGGSTYADSVKGRFTISRDNAKNTVYLQMNSLKPEDTAVYYCAARYRTRYAGYNYWGQGTQVTVSS”, “high polyreactivity”. The same measure for “QDQLVESGGGLVQAGGSLRLSCAASGSTFNAYAMGWYRQAPGKERELVADISISGGTYYADSVKGRFTISRDNAKNTVYLQMNSLKPEDTAVYYCAAKPSWHGVYYWGQGTQVTVSS”: “low polyreactivity”; for “QVQLVESGGGLVQAGGSLRLSCAASGFNFGWYAMGWYRQAPGKERELVAAISGRGGSTNYADSVKGRFTISRDNAKNTVYLQMNSLKPEDTAVYYCNAALSPWGNNYWGQGTQVSVSS”: “high polyreactivity”; for “QVQLVESGGGLVQAGGSLRLSCAASGITFKRYTMGWYRQAPGKERELVAANSRSGGSTYYADSVKGRFTISRDTAKNTVYLQMNSLKPEDTAVYYCAAAVGGYNVAYDYWGQGTQVTVSS”: “high polyreactivity”. The same measure for “QVQLVESGGGLVQAGGSLRLSCAASGSIFSSYALGWYRQAPGKVRELVAAITKRADRTNYADSVKGRFTISRDNAKNTVYLQMNSLKPEDTAVYYCNAEGQNDHPSNGYISYKYDYWGQGTQVTVSS”: “low polyreactivity”. As to “QVQLVESGGGLVQAGGSLRLSCAASGLTFVKNVMGWYRQAPGKERELVAAISRRGGSTYSADSVKGRFTISRDNAKNTVYLQMNSLQPADTAVYYCAARTPSPTRPQYYYWGQGTQVTVSS”, the “polyreactivity (PSR sort gate)” value is listed as “high polyreactivity”. As for “QVQLVESGGGLVQAGGSLRLSCAASGFIFLSYAMGRYRQAPGKERELVAAISGRGGSTYYADSVKGRFTISRDNAKNTVYLQMNSLKPEDTAVYYCAVRRYRFPPGDYWGQGTQVTVSS”, the entry is “high polyreactivity”. The same measure for “QVQLVESGGGIVQAGGSLRLSCAASGIIFWNYAMGWYRQAPGKERELVAAITDGGSTYYADSVKGRFTISRDNEKNTVYLQMNSLKPEDNAVYYCNTDWAYLSDYWGQGTQVTVSS”: “low polyreactivity”. The same measure for “QVQLVESGGGLVQAGGSLRLSCAASGSTFYQYAMGWYRQSPGKERELVAAISGISGSTSYADSVKGRFTISRDNAKNTVYLQMNSLKPEDTAVYYCAKGTAPIPYRGRVGTSKSDYWGQGTQVTVSS”: “low polyreactivity”; for “QVQLVESGGGLVQAGGSLRLSCAASGSTFPSYVMGWSRQAPGKARELVAAISSSGGRTYYADSVKGRFTISRDNAKNTVYLQMNSLKPEDTAVYYCAAKRGPLVYDHDYWGQGTQVTVSS”: “high polyreactivity”; for “QVQLVESGGGLVQAGGSLRLSCAASGRIFSIYGMGWYRQAPGKERELVAVISGSVGITYYADSVKGRFTISRDNAKNTVYLQMNSLKPEDTAVYYSNAKVRRRKYDYWGQGTQVTVSS”: “high polyreactivity”. Take “QVQLVESAGGLVQAGGSLRLSCAASGSTFRYYAMGWSRQAPGKESELVAVISTSGNTYYADSVKGRFTISRDNAKNSVYLQMNSLIPEDTAVYYCAARGVGGQISQEYDYWGKGTQVTVSS”: the “polyreactivity (PSR sort gate)” value is “low polyreactivity”. As for “QVQHVESGGGLVQEGGSLRLICSASGIIFSWYAMGWYRQAPGKERELVATISGGGGSTYYADSVKGRFTISRENAKNTVYLQMNRLKPEDTAVYYCAADYWNFNWRYKLYRPYDYWGQGTQVTVSS”, the entry is “high polyreactivity”; as for “QVQLVESGGGLVQAGGSLRLSCAASGSTFPSNAMGWYRQAPGKERELVAAISRSGGSTYYADSVKGRFTISRDNAKNTVYLQMNSLKPEDTAVYYCAVQVRPNSGGTRIHRGGYDYWGQGTQVTVSS”, “low polyreactivity”. The same measure for “QVQLVESGGGLDQAGGSRRLSCAASGITFGRNTMGWYRQSPGKERELVASISYSGTTTYYADSVKGRFTISPDNAKNTVYLQMNSLKPEDTAVYYCNKRWRYYDMDYWGQGTQVTVSS”: “low polyreactivity”; for “QVQLVESGGGLVQAGGSLRLSCAASGSIFERYTMGWYRQAPGKERELVAAISRSGGRTYYADSVKGRFTISRDNAKNTVYLQMNSLKPEDTAVYYCARTRVASKGYDYWGQGTQVTVSS”: “high polyreactivity”; for “QVQLVESGVGLVQAGGSLRLSCAASGRTFSRNAMGWYRQSPGKERELVATISRGGGITFYADSVKGRFTISRDNAKNNVYLQMKSLKPEDTAVYYCNADVRYVGLRRIVDYWGLGTQVTVSS”: “high polyreactivity”. As for “QVLLQESGGGLVQAGGSLRLGCAASGTISPAYYMGRSHQAPGKEREFVAAITYGTNTYYADSVKGRFTISRDNAKNTVYLQMNSLKPEDTAVYYCSATAGYNGAHDYWGQGTQVTVSS”, the entry is “low polyreactivity”.

For “QVQLVESGGGIVQAGGSLRLSCAASGITLINYAMGWYRQAPGKERELVAAISTSGSSTYYADSVKGRFTISRDNAKNTVYLQMNSLKPEDTAVYYCAAELDVYSLFGYWGQGTQVTVSS”, the “polyreactivity (PSR sort gate)” value is “low polyreactivity”.
